Experimental data: paper PMC4183622
Each block holds one substance with its values, some of them ahead of it.

What was measured:
[1] = target: Tr3DCatch1 (chimeric SpyAvidin tetramer of three core traptavidin subunits and one Dead streptavidin-SpyCatcher subunit) (UniProt P22629); experiment: gel shift on SDS-PAGE of unboiled samples, Coomassie staining; SpyAvidin tetramer incubated with the ligand for 1 h at room temperature in PBS; the SpyTag/SpyCatcher link is a covalent isopeptide bond
[2] = target: Tr (core traptavidin), homotetramer Tr4; experiment: mixed refolding, ion-exchange chromatography and SDS-PAGE with or without boiling; subunits refolded from dissolved inclusion bodies (alone or mixed) by dilution into PBS; tetramers separated on Q-HP with a NaCl gradient in 20 mM Tris-HCl pH 8.0; tetramers stay assembled on SDS-PAGE unless boiled
[3] = target: Tre (core traptavidin with a C-terminal hexaglutamate tag), homotetramer Tre4; experiment: as above

Substance: KTag-AffiHER2-SpyTag (SpyTag-linked affibody against HER2)
- stoichiometry N [1]: 1

- stoichiometry N [2]: 4
Substance: Tr (core traptavidin), homotetramer Tr4 (complex)

- stoichiometry N [3]: 4
Substance: Tre (core traptavidin with a C-terminal hexaglutamate tag), homotetramer Tre4 (complex)
